Measured values published in the supplement of paper PMC12042874.
± gives the uncertainty stated by the source.

Experiment: amyloid nucleation score (Sup35N fusion, yeast selection) (log enrichment); library NNK3; higher = more nucleation; inactive = no reads after selection
Method in brief: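 Yeast lacking psi expressed peptides of 20 random codons fused to Sup35N, received 100 μM copper sulfate for 24 hours, and were then grown for 7 days at 30°C on medium lacking adenine and uracil. Illumina sequencing of input and output plasmid inserts provided the reads. Nucleation scores are DiMSum log enrichments of output over input, centred on the mode of non-aggregating sequences. Any sequence with under 100 input reads was excluded.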

Substance	amyloid nucleation score
AACYINMCIGIVYGYSFLSF	1.13 ± 0.087
AAIYYLSRAECNFSRYKNYL	inactive
AAMHLDILNGTATRLSYSCA	inactive
AANLGRSIPESSRKGIGFNF	inactive
ACCRSNDYDSYTPFDVVNHW	inactive
ACLLKSYFSRYNEKPTCYVT	inactive
ACSDFSE	inactive
ACSRRERY	inactive
ACTFITRMYCGWHSS	inactive
ACTIMWSSLKSIT	inactive
ACTRYCWHYFVNIVWCESDF	inactive
ACYFWS	inactive
ADFTRGGT	inactive
ADKIRIRFY	inactive
ADLRIRSSSCRPSADINFG	inactive
ADPSMVNVICHGLSDRGSY	inactive
ADSLRCVSWFSD	inactive
ADTTCHFACKPKLDFLRKTT	inactive
AELVNIF	inactive
AENINCKMM	1.45 ± 0.12
AENLVWRVMAYSARSTADYG	inactive
AESICALTML	inactive
AEWWSTVCH	inactive

Substance	amyloid nucleation score
AEWYIRITGDICLDPYLCKN	inactive
AFFSFNAD	inactive
AFKWSRSCGMWLTDIGAWW	inactive
AFMVKYSSVLYVCNLALGRA	inactive
AFNVIRYVVWFSMVRASNAS	inactive
AFYYWVDEMVSLNIRLSFYN	inactive
AGDGHLSLS	inactive
AGFSVVSRPLFVRQLPV	inactive
AGIRYTNYFSSMGSIGGDGV	inactive
AGPVMRRLFVNGWFVVFGRM	inactive
AGSPCWSNHHYMTKRDCRFS	inactive
AHGEMRAVKPINFKACWRCL	inactive
AHRLHSLINSLTLSNRSMM	inactive
AHVLVSFCFSFTRSVKFGLV	inactive
AICAVPRTKMMIQRTSSNRS	inactive
AIERIFHCGETVIFMTGHLL	inactive
AIFHGIRCSFMSSSLYTNDG	inactive
AIFRS	inactive
AIKVGASIINFLWLAHVWCP	inactive
AINVRRSLTTYPNFLDTVRS	inactive
AIYAYTFAKRPSCEQATRVS	inactive
AKCMSDFVECRKSRRMMAGW	inactive
AKDMEGGQHNDGSDRRNERW	inactive

Substance	amyloid nucleation score
AKSKSIRERLVVFEASQTRY	inactive
AKYFKFKHNVKGVHWKHVPE	-0.074 ± 0.53
AKYIEHGYCF	inactive
ALDIDWFYWYRHQSSPSFFY	inactive
ALGTSEGRLQLSYDNHGVVL	inactive
ALHFDFIFIYRDRCCCCTFY	1.27 ± 0.1
ALMMRLFFRIRSTMCCWVCS	inactive
ALQLHWYYRDTRRRCFTVCV	inactive
ALSVSSLALANDDVTG	inactive
ALYWTEYQ	inactive
AMIINLRMWYNLRIIIMGTR	inactive
AMNNAGSGKQEYNRYGEIIN	inactive
AMNNLLFTLYVF	inactive
AMQAAPVCRRYAVVTTHFDH	inactive
AMSIVERQGDVWLSYRKWNG	inactive
AMTRCGECGHRMGKASAGMW	inactive
ANAISWGYLIKDYS	inactive
ANCPMHRLTAGNSLCLWTW	1.69 ± 0.086
ANCVALTIVSYQVARDMKSK	1.36 ± 0.087
ANESMWYSLMLTVFVLAGCM	inactive
ANGLWKRIAFEGTARCEGMG	inactive
ANTFVSSWFVTTNRQKTERG	inactive
ANVDTIDFASAVILF	inactive

Substance	amyloid nucleation score
APAKTYIACC	inactive
APIKIRFD	inactive
APRGVVLPWTLDIASSLLTP	inactive
APRLFINY	inactive
ARASVFAMGDTPLWSG	inactive
ARFLYAVVLRWFIMEYRAGT	inactive
ARIFH	inactive
ARIYCSWYPLYTFYLIHSH	0.644 ± 0.2
ARLVAGCVMCHGSLWEMIRE	0.572 ± 0.28
ARNFLVRIWHCDRFSDCGII	inactive
ARPMIPMCLLQRAMYPLYSP	inactive
ARRGLPVARIIFSHDPNL	inactive
ARWVWDIKETVTLV	inactive
ASAFYRCVGGIVYVHTIVGV	inactive
ASANLRILYLWTIGNVLNAY	inactive
ASAYGSSLYSRFTVEYNSII	0.223 ± 0.38
ASDGCSLRVAPVTQSPLWVS	inactive
ASDNWESRPSRSSDKSGVIG	inactive
ASDRMKGVLNLLQYVGYSSM	inactive
ASFISCSIMYYFIVFCL	inactive
ASFYWECMYVHGDVFLCVWY	1.79 ± 0.1
ASGLDIISSSNKLH	inactive
ASVYTN	inactive

Substance	amyloid nucleation score
ATGLWGICGWTPDTNHLQVM	inactive
ATICYEVRWEPDSSPGRS	inactive
ATTVNGFIISHRVYNAGSWY	1.28 ± 0.1
AVALY	inactive
AVCPSISTLSCGQ	-0.055 ± 0.82
AVCWLRMTYGLRLEVGSPVD	inactive
AVDQGGLAYRGRRC	inactive
AVLHNMGFSHILAQLV	inactive
AVNPRQFKFTVDEKSIGRVA	inactive
AVSSVLIHALYLVGMLPPSN	1.83 ± 0.092
AVVLFLGTLQLGCLGLIVQL	-0.424 ± 0.75
AVWYRNI	2.06 ± 0.057
AWISGHVRVKLSFRLTFFLK	inactive
AWKLKFFVFNSLSVIT	inactive
AWKTLAHRQSWGGCNRA	inactive
AWLSLVCVDVGTTPFSHNDR	inactive
AWTTQPPYMFSSGFWNFYVC	inactive
AYCPKTALEVY	inactive
AYCVFHSIYGV	inactive
AYIKWNVDCRLKTHNDGYFL	inactive
AYLLSIANCFSAVYLHPSDS	0.216 ± 0.56
AYNQSRILGVDLACRNELLC	inactive
AYNSYELVRAL	inactive

Substance	amyloid nucleation score
AYRVVQTGDLHGRCAWIVNV	0.088 ± 0.88
AYSYRGHGLGMDGAGPVCLI	inactive
AYWESNSIPR	inactive
CAESIRHRRP	inactive
CAITAQARV	inactive
CALYFVWAWWERRRKMYYA	inactive
CAMTLRTFFQPPPITTSKYC	inactive
CAVYFLR	inactive
CCGMYYNSMASNVWSER	2.17 ± 0.084
CCHSITFLVNLGMRERKNKV	inactive
CCIKGHFPSSFGSWAKYLHV	inactive
CCLPSYSVGCRASGDDSW	inactive
CCLYTVNNSDSLVNTTVGVG	inactive
CCNFWRMPMTLCRNSCSSST	0.718 ± 0.17
CCRDVYTEGDM	inactive
CCVMHDE	inactive
CDFIHCLVCFLPIWKSCGTE	0.732 ± 0.34
CDMDVFLSNMPSSVVNRSG	inactive
CDTFVVNMSQFLSISTMAER	0.66 ± 0.17
CEYVNKLHTVGVHWGTGSRE	inactive
CFAVWHISVEMYVRDRW	inactive
CFAYCFLSLFEMRIWTN	-0.074 ± 0.64
CFCFARFKFR	2.19 ± 0.071

Substance	amyloid nucleation score
CFCVDADIIRTLMVCDIILS	1.12 ± 0.099
CFDWYFDNDTRFIVGAMLVW	inactive
CFFLYCLNFFMRSIERDRDG	2.24 ± 0.054
CFGHYSMN	inactive
CFHVILFK	1.11 ± 0.095
CFLYLLLQTN	inactive
CFPIASHGDSCGMIAA	inactive
CFQDRQKLF	inactive
CFSVGKWSIFRN	inactive
CFSYGMWNSLPRWLALN	inactive
CFSYSLGVLVTYRGCYRSVL	inactive
CFTLFVSQYVNDLDDYKRNW	1.34 ± 0.092
CFVDFYSWWLSITVQGLHNN	inactive
CFVFTFGT	1.38 ± 0.082
CFVFWKSRQIYWMMMSRCVV	inactive
CFVVNCHYFDFMDV	2.51 ± 0.06
CFVYRTLISNLFSIWHSLQF	inactive
CFYIKKSKVGLGHWINHV	inactive
CGEYMRCLNVEYRCVGVKGS	inactive
CGPFGFMCDAVGSAQFDIMM	inactive
